Experimental findings from patent publication US20250197514A1 (INTERVET, published 2025) are described below.

Assay [1] addresses T1, canine FcRn heterodimer (FCGRT large subunit p51 + beta-2-microglobulin), biotin-labeled (Canis lupus familiaris; Canis familiaris, biotin-labeled (site not stated; the chain carries an AviTag)).
T1 construct: also called FcRn/B2M; FcRn/β2M; not shown: AviTag, named only
T1 chain (part 1 of 2): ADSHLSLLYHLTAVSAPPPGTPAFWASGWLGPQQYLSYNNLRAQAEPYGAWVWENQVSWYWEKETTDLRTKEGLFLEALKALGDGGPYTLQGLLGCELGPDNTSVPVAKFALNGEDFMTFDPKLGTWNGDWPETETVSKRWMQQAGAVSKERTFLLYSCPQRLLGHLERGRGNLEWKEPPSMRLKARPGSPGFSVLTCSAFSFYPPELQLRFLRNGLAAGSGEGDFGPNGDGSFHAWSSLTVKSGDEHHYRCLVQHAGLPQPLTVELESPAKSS
T1 chain (part 2 of 2): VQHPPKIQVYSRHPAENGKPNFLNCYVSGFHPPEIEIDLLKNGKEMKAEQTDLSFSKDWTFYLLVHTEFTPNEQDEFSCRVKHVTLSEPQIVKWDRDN
In words: BLI (Octet HTX), biotinylated FcRn/B2M on streptavidin biosensors, analyte 500-7.8 nM, pH 6.0, 1:1 fit. As for the experimental part:
(§1) The binding of antibodies and IgG Fc fusion proteins to FcRn proteins was determined by Octet™ HTX using Streptavidin (SA) biosensors. First, biotin-labeled […] was loaded onto pre-hydrated SA biosensors for 60 s at a concentration of 10 μg/mL. Second, the biosensors were placed into pH 6.0 TBS/Casein buffer for the blocking phase for 180 s. Third, for the association phase, FcRn/B2M loaded biosensors were placed into 2-fold serial dilutions from 500 nM down to 7.8 nM of antibody or IgG Fc fusion protein in pH 6.0 or 7.4 TBS/Casein buffer for 15 s. Finally, the biosensors were placed into either pH 6.0 or pH 7.4 TBS/Casein buffer for the dissociation phase for 60 s. Analysis was performed using Octet Data Analysis 12.0 software and curves were fitted using a 1:1 binding model.
In general terms: Biolayer interferometry detects binding as a change in optical thickness at a sensor tip.

Assay [2] addresses T1, canine FcRn heterodimer (FCGRT large …). In words: BLI (Octet HTX), biotinylated FcRn/B2M on streptavidin biosensors, analyte 500-7.8 nM, pH 7.4, 1:1 fit. As for the experimental part:
as §1

B1: cIL-13Rα2-cIgGB-Fc-L (Fc fusion)
chain: SMLSNAEIKVNPPQDFEIVDPGYLGYLSLQWQPPLFPDNFKECTIEYELKYRNIDSENWKTIITKNLHYKDGFDLNKGIEAKINTLLPAQCTNGSEVRSSWAETTYWTSPQGNRETKIQDMDCVYYNWQYLVCSWKPGMGVHFDTNYQLFYWYEGLDHSAECTDYIKVNGKNMGCRFPYLESSDYKDFYICVNGSSESQPIRPSYFIFQLQNIVKPMPPDYLSLTVKNSEEINLKWNMPKGPIPAKCFIYEIEFTEDGTTWVTTTVENEIQITRTSNESQKLCFLVRSKVNIYCSDDGIWSEWSDEQCWKGDIWKETPKRENGRVPRPPDCPKCPAPEMLGGPSVFIFPPKPKDTLLIARTPEVTCVVVDLDPEDPEVQISWFVDGKQMQTAKTQPREEQFNGTYRVVSVLPIGHQDWLKGKQFTCKVNNKALPSPIERTISKARGQAHQPSVYVLPPSREELSKNTVSLTCLIKDFFPPDIDVEWQSNGQQEPESKYRTTPPQLDEDGSYFLYSKLSVDKSRWQRGDTFICAVMHEALLNHYTQESLSHSPGK
notes: also called cIL-13Ra2-cIgGB-Fc-L; H433L
Broadly, the Kd is the equilibrium constant for the complex coming apart. Regarding B1, the Kd in assay [1] amounted to 12.3 nM; in assay [2] it was 7210 nM.

B2: cIL-13Rα2-cIgGB-Fc-T (Fc fusion)
chain: SMLSNAEIKVNPPQDFEIVDPGYLGYLSLQWQPPLFPDNFKECTIEYELKYRNIDSENWKTIITKNLHYKDGFDLNKGIEAKINTLLPAQCTNGSEVRSSWAETTYWTSPQGNRETKIQDMDCVYYNWQYLVCSWKPGMGVHFDTNYQLFYWYEGLDHSAECTDYIKVNGKNMGCRFPYLESSDYKDFYICVNGSSESQPIRPSYFIFQLQNIVKPMPPDYLSLTVKNSEEINLKWNMPKGPIPAKCFIYEIEFTEDGTTWVTTTVENEIQITRTSNESQKLCFLVRSKVNIYCSDDGIWSEWSDEQCWKGDIWKETPKRENGRVPRPPDCPKCPAPEMLGGPSVFIFPPKPKDTLLIARTPEVTCVVVDLDPEDPEVQISWFVDGKQMQTAKTQPREEQFNGTYRVVSVLPIGHQDWLKGKQFTCKVNNKALPSPIERTISKARGQAHQPSVYVLPPSREELSKNTVSLTCLIKDFFPPDIDVEWQSNGQQEPESKYRTTPPQLDEDGSYFLYSKLSVDKSRWQRGDTFICAVMHEALHNHTTQESLSHSPGK
notes: also called cIL-13Ra2-cIgGB-Fc-T; Y436T
For B2, the Kd turned out to be 5.95 nM in assay [1] and 6120 nM in assay [2].

B3: cIL-13Rα2-cIgGB-Fc-LFT (Fc fusion)
chain: SMLSNAEIKVNPPQDFEIVDPGYLGYLSLQWQPPLFPDNFKECTIEYELKYRNIDSENWKTIITKNLHYKDGFDLNKGIEAKINTLLPAQCTNGSEVRSSWAETTYWTSPQGNRETKIQDMDCVYYNWQYLVCSWKPGMGVHFDTNYQLFYWYEGLDHSAECTDYIKVNGKNMGCRFPYLESSDYKDFYICVNGSSESQPIRPSYFIFQLQNIVKPMPPDYLSLTVKNSEEINLKWNMPKGPIPAKCFIYEIEFTEDGTTWVTTTVENEIQITRTSNESQKLCFLVRSKVNIYCSDDGIWSEWSDEQCWKGDIWKETPKRENGRVPRPPDCPKCPAPEMLGGPSVFIFPPKPKDTLLIARTPEVTCVVVDLDPEDPEVQISWFVDGKQMQTAKTQPREEQFNGTYRVVSVLPIGHQDWLKGKQFTCKVNNKALPSPIERTISKARGQAHQPSVYVLPPSREELSKNTVSLTCLIKDFFPPDIDVEWQSNGQQEPESKYRTTPPQLDEDGSYFLYSKLSVDKSRWQRGDTFICAVMHEALLFHTTQESLSHSPGK
notes: also called cIL-13Ra2-cIgGB-Fc-LFT; H433L/N434F/Y436T
In the case of B3, the values for the Kd in assay [1] and in assay [2] were 2.87 nM and 905 nM, respectively.

B4: cIL-13Rα2-cIgGB-Fc-PY (Fc fusion)
chain: SMLSNAEIKVNPPQDFEIVDPGYLGYLSLQWQPPLFPDNFKECTIEYELKYRNIDSENWKTIITKNLHYKDGFDLNKGIEAKINTLLPAQCTNGSEVRSSWAETTYWTSPQGNRETKIQDMDCVYYNWQYLVCSWKPGMGVHFDTNYQLFYWYEGLDHSAECTDYIKVNGKNMGCRFPYLESSDYKDFYICVNGSSESQPIRPSYFIFQLQNIVKPMPPDYLSLTVKNSEEINLKWNMPKGPIPAKCFIYEIEFTEDGTTWVTTTVENEIQITRTSNESQKLCFLVRSKVNIYCSDDGIWSEWSDEQCWKGDIWKETPKRENGRVPRPPDCPKCPAPEMLGGPSVFIFPPKPKDTLLIARTPEVTCVVVDLDPEDPEVQISWFVDGKQMQTAKTQPREEQFNGTYRVVSVLPPGHQDWLKGKQFTCKVNNKALPSPIERTISKARGQAHQPSVYVLPPSREELSKNTVSLTCLIKDFFPPDIDVEWQSNGQQEPESKYRTTPPQLDEDGSYFLYSKLSVDKSRWQRGDTFICAVMHEALHYHYTQESLSHSPGK
notes: also called cIL-13Ra2-cIgGB-Fc-PY; I308P/N434Y
For B4, the Kd in assay [1] stood at 0.3 nM; in assay [2], 20.4 nM.

B5: cIL-13Rα2-cIgGB-Fc-LYT (Fc fusion)
chain: SMLSNAEIKVNPPQDFEIVDPGYLGYLSLQWQPPLFPDNFKECTIEYELKYRNIDSENWKTIITKNLHYKDGFDLNKGIEAKINTLLPAQCTNGSEVRSSWAETTYWTSPQGNRETKIQDMDCVYYNWQYLVCSWKPGMGVHFDTNYQLFYWYEGLDHSAECTDYIKVNGKNMGCRFPYLESSDYKDFYICVNGSSESQPIRPSYFIFQLQNIVKPMPPDYLSLTVKNSEEINLKWNMPKGPIPAKCFIYEIEFTEDGTTWVTTTVENEIQITRTSNESQKLCFLVRSKVNIYCSDDGIWSEWSDEQCWKGDIWKETPKRENGRVPRPPDCPKCPAPEMLGGPSVFIFPPKPKDTLLIARTPEVTCVVVDLDPEDPEVQISWFVDGKQMQTAKTQPREEQFNGTYRVVSVLPIGHQDWLKGKQFTCKVNNKALPSPIERTISKARGQAHQPSVYVLPPSREELSKNTVSLTCLIKDFFPPDIDVEWQSNGQQEPESKYRTTPPQLDEDGSYFLYSKLSVDKSRWQRGDTFICAVMHEALLYHTTQESLSHSPGK
notes: also called cIL-13Ra2-cIgGB-Fc-LYT; H433L/N434Y/Y436T
B5: the Kd is 3.32 nM in assay [1] and 127 nM in assay [2].

B6: cIL-13Rα2-cIgGB-Fc-Y (Fc fusion)
chain: SMLSNAEIKVNPPQDFEIVDPGYLGYLSLQWQPPLFPDNFKECTIEYELKYRNIDSENWKTIITKNLHYKDGFDLNKGIEAKINTLLPAQCTNGSEVRSSWAETTYWTSPQGNRETKIQDMDCVYYNWQYLVCSWKPGMGVHFDTNYQLFYWYEGLDHSAECTDYIKVNGKNMGCRFPYLESSDYKDFYICVNGSSESQPIRPSYFIFQLQNIVKPMPPDYLSLTVKNSEEINLKWNMPKGPIPAKCFIYEIEFTEDGTTWVTTTVENEIQITRTSNESQKLCFLVRSKVNIYCSDDGIWSEWSDEQCWKGDIWKETPKRENGRVPRPPDCPKCPAPEMLGGPSVFIFPPKPKDTLLIARTPEVTCVVVDLDPEDPEVQISWFVDGKQMQTAKTQPREEQFNGTYRVVSVLPIGHQDWLKGKQFTCKVNNKALPSPIERTISKARGQAHQPSVYVLPPSREELSKNTVSLTCLIKDFFPPDIDVEWQSNGQQEPESKYRTTPPQLDEDGSYFLYSKLSVDKSRWQRGDTFICAVMHEALHYHYTQESLSHSPGK
notes: Made in ExpiCHO, Protein A purified; also called cIL-13Ra2-cIgGB-Fc-Y; N434Y
B6: the Kd is 0.11 nM in assay [1] and 187 nM in assay [2].

B7: cIL-13Rα2-cIgGB-Fc-LY (Fc fusion)
chain: SMLSNAEIKVNPPQDFEIVDPGYLGYLSLQWQPPLFPDNFKECTIEYELKYRNIDSENWKTIITKNLHYKDGFDLNKGIEAKINTLLPAQCTNGSEVRSSWAETTYWTSPQGNRETKIQDMDCVYYNWQYLVCSWKPGMGVHFDTNYQLFYWYEGLDHSAECTDYIKVNGKNMGCRFPYLESSDYKDFYICVNGSSESQPIRPSYFIFQLQNIVKPMPPDYLSLTVKNSEEINLKWNMPKGPIPAKCFIYEIEFTEDGTTWVTTTVENEIQITRTSNESQKLCFLVRSKVNIYCSDDGIWSEWSDEQCWKGDIWKETPKRENGRVPRPPDCPKCPAPEMLGGPSVFIFPPKPKDTLLIARTPEVTCVVVDLDPEDPEVQISWFVDGKQMQTAKTQPREEQFNGTYRVVSVLPIGHQDWLKGKQFTCKVNNKALPSPIERTISKARGQAHQPSVYVLPPSREELSKNTVSLTCLIKDFFPPDIDVEWQSNGQQEPESKYRTTPPQLDEDGSYFLYSKLSVDKSRWQRGDTFICAVMHEALLYHYTQESLSHSPGK
notes: also called cIL-13Ra2-cIgGB-Fc-LY; H433L/N434Y
For the molecule B7, the Kd turned out to be 2.35 nM in assay [1] and 298 nM in assay [2].

B8: cIL-13Rα2-cIgGB-Fc-LF (Fc fusion)
chain: SMLSNAEIKVNPPQDFEIVDPGYLGYLSLQWQPPLFPDNFKECTIEYELKYRNIDSENWKTIITKNLHYKDGFDLNKGIEAKINTLLPAQCTNGSEVRSSWAETTYWTSPQGNRETKIQDMDCVYYNWQYLVCSWKPGMGVHFDTNYQLFYWYEGLDHSAECTDYIKVNGKNMGCRFPYLESSDYKDFYICVNGSSESQPIRPSYFIFQLQNIVKPMPPDYLSLTVKNSEEINLKWNMPKGPIPAKCFIYEIEFTEDGTTWVTTTVENEIQITRTSNESQKLCFLVRSKVNIYCSDDGIWSEWSDEQCWKGDIWKETPKRENGRVPRPPDCPKCPAPEMLGGPSVFIFPPKPKDTLLIARTPEVTCVVVDLDPEDPEVQISWFVDGKQMQTAKTQPREEQFNGTYRVVSVLPIGHQDWLKGKQFTCKVNNKALPSPIERTISKARGQAHQPSVYVLPPSREELSKNTVSLTCLIKDFFPPDIDVEWQSNGQQEPESKYRTTPPQLDEDGSYFLYSKLSVDKSRWQRGDTFICAVMHEALLFHYTQESLSHSPGK
notes: also called cIL-13Ra2-cIgGB-Fc-LF; H433L/N434F
With B8, the results for the Kd in assay [1] and in assay [2] were 2.27 nM and 226 nM, respectively.
